From patent US20230250154A1 (CYTONICS, published 2023)
Each block holds one binder with its values, some of them ahead of it.

Key:
Assay in all cases: cell-based or functional assay
ADAMTS4 = biological target: T1, ADAMTS4 (human, UniProt O75173 213-685, limits assumed)
T1 sequence (looked up): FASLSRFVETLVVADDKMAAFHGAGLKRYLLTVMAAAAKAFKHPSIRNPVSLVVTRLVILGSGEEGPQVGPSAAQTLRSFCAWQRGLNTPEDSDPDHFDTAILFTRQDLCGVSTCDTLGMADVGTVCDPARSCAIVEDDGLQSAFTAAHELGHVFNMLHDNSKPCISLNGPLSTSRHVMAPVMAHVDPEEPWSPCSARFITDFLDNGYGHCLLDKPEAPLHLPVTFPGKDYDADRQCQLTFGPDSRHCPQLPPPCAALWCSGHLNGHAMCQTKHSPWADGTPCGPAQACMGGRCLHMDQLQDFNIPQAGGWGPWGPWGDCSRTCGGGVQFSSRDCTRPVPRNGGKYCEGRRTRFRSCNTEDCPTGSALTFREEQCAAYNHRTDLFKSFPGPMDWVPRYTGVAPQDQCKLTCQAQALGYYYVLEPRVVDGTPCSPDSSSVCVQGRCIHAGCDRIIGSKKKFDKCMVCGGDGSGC

MMP13 = MMP13 (human, UniProt P45452 104-471, limits assumed)
ADAMTS5 = biological target: T2, ADAMTS5 (human, UniProt Q9UNA0 262-622, limits assumed)
T2 sequence (looked up): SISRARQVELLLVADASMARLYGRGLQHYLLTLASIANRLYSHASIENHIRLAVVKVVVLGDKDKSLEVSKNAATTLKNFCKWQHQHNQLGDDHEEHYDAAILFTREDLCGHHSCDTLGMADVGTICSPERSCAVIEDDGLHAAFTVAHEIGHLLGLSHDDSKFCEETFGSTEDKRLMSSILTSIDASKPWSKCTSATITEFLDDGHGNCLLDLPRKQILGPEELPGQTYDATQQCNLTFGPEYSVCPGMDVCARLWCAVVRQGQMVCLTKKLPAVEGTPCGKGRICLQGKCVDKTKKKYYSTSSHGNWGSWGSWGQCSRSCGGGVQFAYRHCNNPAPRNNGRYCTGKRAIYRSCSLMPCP

Protease Inhibition (% of WT) (ADAMTS4): 94 % of WT | Protease Inhibition (% of WT) (MMP13): 164 % of WT | Protease Inhibition (% of WT) (ADAMTS5): 115 % of WT
B1: Variant A2M, bait region SEQ ID NO 105 (other)
chain: SVSGKPQYMVLVPSLLHTETTEKGCVLLSYLNETVTVSASLESVRGNRSLFTDLEAENDVLHCVAFAVPKSSSNEEVMFLTVQVKGPTQEFKKRTTVMVKNEDSLVFVQTDKSIYKPGQTVKFRVVSMDENFHPLNELIPLVYIQDPKGNRIAQWQSFQLEGGLKQFSFPLSSEPFQGSYKVVVQKKSGGRTEHPFTVEEFVLPKFEVQVTVPKIITILEEEMNVSVCGLYTYGKPVPGHVTVSICRKYSDASDCHGEDSQAFCEKFSGQLNSHGCFYQQVKTKVFQLKRKEYEMKLHTEAQIQEEGTVVELTGRQSSEITRTITKLSFVKVDSHFRQGIPFFGQVRLVDGKGVPIPNKVIFIRGNEANYYSNATTDEHGLVQFSINTTNVMGTSLTVRVNYKDRSPCYGYQWVSEEHEEAHHTAYLVFSPSKSFVHLEPMSHELPCGHTQTVQAHYILNGGTLLGLKKLSFYYLIMAKGGIVRTGTHGLLVKQEDMKGHFSISIPVKSDIAPVARLLIYAVLPTGDVIGDSAKYDVENCLANKVDLSFSPSQSLPASHAHLRVTAAPQSVCALRAVDQSVLLMKPDAELSASSVYNLLPEKDLTGFPGPLNDQDDEDCINRHNVYINGITYTPVSSTNEKDMYSFLEDMGLKAFTNSKIRKPKMCPQLEQYEMHGPEGLRVGGFKEGVEGEIEEGGGFKEGVEGKLRKYFPETWIWDLVVVNSAGVAEVGVTVPDTITEWKAGAFCLSEDAGLGISSTASLRAFQPFFVELTMPYSVIRGEAFTLKATVLNYLPKCIRVSVQLEASPAFLAVPVEKEQAPHCICANGRQTVSWAVTPKSLGNVNFTVSAEALESQELCGTEVPSVPEHGRKDTVIKPLLVEPEGLEKETTFNSLLCPSGGEVSEELSLKLPPNVVEESARASVSVLGDILGSAMQNTQNLLQMPYGCGEQNMVLFAPNIYVLDYLNETQQLTPEIKSKAIGYLNTGYQRQLNYKHYDGSYSTFGERYGRNQGNTWLTAFVLKTFAQARAYIFIDEAHITQALIWLSQRQKDNGCFRSSGSLLNNAIKGGVEDEVTLSAYITIALLEIPLTVTHPVVRNALFCLESAWKTAQEGDHGSHVYTKALLAYAFALAGNQDKRKEVLKSLNEEAVKKDNSVHWERPQKPKAPVGHFYEPQAPSAEVEMTSYVLLAYLTAQPAPTSEDLTSATNIVKWITKQQNAQGGFSSTQDTVVALHALSKYGAATFTRTGKAAQVTIQSSGTFSSKFQVDNNNRLLLQQVSLPELPGEYSMKVTGEGCVYLQTSLKYNILPEKEEFPFALGVQTLPQTCDEPKAHTSFQISLSVSYTGSRSASNMAIVDVKMVSGFIPLKPTVKMLERSNHVSRTEVSSNHVLIYLDKVSNQTLSLFFTVLQDVPVRDLKPAIVKVYDYYETDEFAIAEYNAPCSKDLGNADYKDDDDKGASHHHHHH

Protease Inhibition (% of WT) (ADAMTS4): 104 % of WT | Protease Inhibition (% of WT) (MMP13): 16 % of WT | Protease Inhibition (% of WT) (ADAMTS5): 93 % of WT
B2: Variant A2M, bait region SEQ ID NO 106 (other)
chain: SVSGKPQYMVLVPSLLHTETTEKGCVLLSYLNETVTVSASLESVRGNRSLFTDLEAENDVLHCVAFAVPKSSSNEEVMFLTVQVKGPTQEFKKRTTVMVKNEDSLVFVQTDKSIYKPGQTVKFRVVSMDENFHPLNELIPLVYIQDPKGNRIAQWQSFQLEGGLKQFSFPLSSEPFQGSYKVVVQKKSGGRTEHPFTVEEFVLPKFEVQVTVPKIITILEEEMNVSVCGLYTYGKPVPGHVTVSICRKYSDASDCHGEDSQAFCEKFSGQLNSHGCFYQQVKTKVFQLKRKEYEMKLHTEAQIQEEGTVVELTGRQSSEITRTITKLSFVKVDSHFRQGIPFFGQVRLVDGKGVPIPNKVIFIRGNEANYYSNATTDEHGLVQFSINTTNVMGTSLTVRVNYKDRSPCYGYQWVSEEHEEAHHTAYLVFSPSKSFVHLEPMSHELPCGHTQTVQAHYILNGGTLLGLKKLSFYYLIMAKGGIVRTGTHGLLVKQEDMKGHFSISIPVKSDIAPVARLLIYAVLPTGDVIGDSAKYDVENCLANKVDLSFSPSQSLPASHAHLRVTAAPQSVCALRAVDQSVLLMKPDAELSASSVYNLLPEKDLTGFPGPLNDQDDEDCINRHNVYINGITYTPVSSTNEKDMYSFLEDMGLKAFTNSKIRKPKMCPQLEQYEMHGPEGLRVGESESEGGFAGLPNGKEEEGLGSIPENFFGVKLRKYFPETWIWDLVVVNSAGVAEVGVTVPDTITEWKAGAFCLSEDAGLGISSTASLRAFQPFFVELTMPYSVIRGEAFTLKATVLNYLPKCIRVSVQLEASPAFLAVPVEKEQAPHCICANGRQTVSWAVTPKSLGNVNFTVSAEALESQELCGTEVPSVPEHGRKDTVIKPLLVEPEGLEKETTFNSLLCPSGGEVSEELSLKLPPNVVEESARASVSVLGDILGSAMQNTQNLLQMPYGCGEQNMVLFAPNIYVLDYLNETQQLTPEIKSKAIGYLNTGYQRQLNYKHYDGSYSTFGERYGRNQGNTWLTAFVLKTFAQARAYIFIDEAHITQALIWLSQRQKDNGCFRSSGSLLNNAIKGGVEDEVTLSAYITIALLEIPLTVTHPVVRNALFCLESAWKTAQEGDHGSHVYTKALLAYAFALAGNQDKRKEVLKSLNEEAVKKDNSVHWERPQKPKAPVGHFYEPQAPSAEVEMTSYVLLAYLTAQPAPTSEDLTSATNIVKWITKQQNAQGGFSSTQDTVVALHALSKYGAATFTRTGKAAQVTIQSSGTFSSKFQVDNNNRLLLQQVSLPELPGEYSMKVTGEGCVYLQTSLKYNILPEKEEFPFALGVQTLPQTCDEPKAHTSFQISLSVSYTGSRSASNMAIVDVKMVSGFIPLKPTVKMLERSNHVSRTEVSSNHVLIYLDKVSNQTLSLFFTVLQDVPVRDLKPAIVKVYDYYETDEFAIAEYNAPCSKDLGNADYKDDDDKGASHHHHHH

Protease Inhibition (% of WT) (ADAMTS4): 100 % of WT | Protease Inhibition (% of WT) (MMP13): 80 % of WT | Protease Inhibition (% of WT) (ADAMTS5): 99 % of WT
B3: Variant A2M, bait region SEQ ID NO 104 (other)
chain: SVSGKPQYMVLVPSLLHTETTEKGCVLLSYLNETVTVSASLESVRGNRSLFTDLEAENDVLHCVAFAVPKSSSNEEVMFLTVQVKGPTQEFKKRTTVMVKNEDSLVFVQTDKSIYKPGQTVKFRVVSMDENFHPLNELIPLVYIQDPKGNRIAQWQSFQLEGGLKQFSFPLSSEPFQGSYKVVVQKKSGGRTEHPFTVEEFVLPKFEVQVTVPKIITILEEEMNVSVCGLYTYGKPVPGHVTVSICRKYSDASDCHGEDSQAFCEKFSGQLNSHGCFYQQVKTKVFQLKRKEYEMKLHTEAQIQEEGTVVELTGRQSSEITRTITKLSFVKVDSHFRQGIPFFGQVRLVDGKGVPIPNKVIFIRGNEANYYSNATTDEHGLVQFSINTTNVMGTSLTVRVNYKDRSPCYGYQWVSEEHEEAHHTAYLVFSPSKSFVHLEPMSHELPCGHTQTVQAHYILNGGTLLGLKKLSFYYLIMAKGGIVRTGTHGLLVKQEDMKGHFSISIPVKSDIAPVARLLIYAVLPTGDVIGDSAKYDVENCLANKVDLSFSPSQSLPASHAHLRVTAAPQSVCALRAVDQSVLLMKPDAELSASSVYNLLPEKDLTGFPGPLNDQDDEDCINRHNVYINGITYTPVSSTNEKDMYSFLEDMGLKAFTNSKIRKPKMCPQLEQYEMHGPEGLRVGESESEGGGGGSLLGEFEVEGGFAGLPNGKLRKYFPETWIWDLVVVNSAGVAEVGVTVPDTITEWKAGAFCLSEDAGLGISSTASLRAFQPFFVELTMPYSVIRGEAFTLKATVLNYLPKCIRVSVQLEASPAFLAVPVEKEQAPHCICANGRQTVSWAVTPKSLGNVNFTVSAEALESQELCGTEVPSVPEHGRKDTVIKPLLVEPEGLEKETTFNSLLCPSGGEVSEELSLKLPPNVVEESARASVSVLGDILGSAMQNTQNLLQMPYGCGEQNMVLFAPNIYVLDYLNETQQLTPEIKSKAIGYLNTGYQRQLNYKHYDGSYSTFGERYGRNQGNTWLTAFVLKTFAQARAYIFIDEAHITQALIWLSQRQKDNGCFRSSGSLLNNAIKGGVEDEVTLSAYITIALLEIPLTVTHPVVRNALFCLESAWKTAQEGDHGSHVYTKALLAYAFALAGNQDKRKEVLKSLNEEAVKKDNSVHWERPQKPKAPVGHFYEPQAPSAEVEMTSYVLLAYLTAQPAPTSEDLTSATNIVKWITKQQNAQGGFSSTQDTVVALHALSKYGAATFTRTGKAAQVTIQSSGTFSSKFQVDNNNRLLLQQVSLPELPGEYSMKVTGEGCVYLQTSLKYNILPEKEEFPFALGVQTLPQTCDEPKAHTSFQISLSVSYTGSRSASNMAIVDVKMVSGFIPLKPTVKMLERSNHVSRTEVSSNHVLIYLDKVSNQTLSLFFTVLQDVPVRDLKPAIVKVYDYYETDEFAIAEYNAPCSKDLGNADYKDDDDKGASHHHHHH
